In US20260242489A1 (HUAHUI HEALTH, published 2026):
Numbering of substitutions follows the chain as printed. Numbers in names are those of the source.

Experiments:
[1] = target: T1, hEGFR ECR-His6-Avi-Biotin (human, UniProt P00533 25-642, biotinylated on the Avi tag using BirA ligase); assay: phage ELISA: biotinylated hEGFR ECR captured on streptavidin plate, phage display scFv titrated, anti-M13-HRP; pH 6.0
T1 construct: also called WT hEGFR ECR; human EGFR ECD; not shown: His6-Avi tag

[2] = target: T1, hEGFR ECR-His6-Avi-Biotin; assay: IgG1 ELISA on hEGFR ECR, pH 6.5 and pH 7.4
[3] = target: T1, hEGFR ECR-His6-Avi-Biotin; assay: ELISA: hEGFR ECR on plate, IgG1 titrated, anti-hFc-HRP; pH 6.5 [table]
[4] = target: T1, hEGFR ECR-His6-Avi-Biotin; assay: ELISA: hEGFR ECR on plate, IgG1 titrated, anti-hFc-HRP; pH 7.4 [table]
[5] = target: T1, hEGFR ECR-His6-Avi-Biotin; assay: phage ELISA: hEGFR ECR on plate, phage display Fab titrated, anti-M13-HRP; EC50 at pH 7.4 over EC50 at pH 6.5 [table]

B1: 14C07 (phage display scFv form) (scFv, V domains shown)
VH: QVQLVQSGAEVKRPGSSVKVSCKASGGTFSSYAISWVRQAPGQGLEWMGGIIPIFGTANYAQKFQGRVTITADESTSTAYMELSSLRSEDTAVYYCARDSSSGWYDYFDYWGQGTLVTVSS
VL: QPVLTQPPSVSAAPGAMARITCESPDIGSKSVQWYQQRPGQAPILVIYYDDDRPSGIPERFSGSNSGNTAALTINWVEPEDEADYYCQAWDDSDPVVFGGGTQLTVL
- EC50 (read off the curve) [1]: ~1e+11 cfu/ml

B2: G532^V (human IgG1 form) (antibody, V domains shown)
VH: QVQLVQSGAEVKRPGSSVKVSCKASGGISDGSAISWVRQAPGQGLEWMGGIRWWGGITNYAQKFQGRVTITADESTSTAYMELSSLRSEDTAVYYCARDSSLGYYDYFDYWGQGTLVTVSS
VL: QPVLTQPPSVSAAPGQTARITCGGNNIGEKHVQWYQQRPGQAPVLVIYYDSTRPSGIPERFSGSNSGNTAALTINSVEAGDEADYYCQAWDDYDPVVFGGGTQLTVLG
notes: G532 with LCDR1 E32H and LCDR2 D52S, D53T
- EC50 ratio (pH 7.4/pH 6.5) [2]: 1.64
- fold lower binding pH-dependency than G532 [2]: ~5 fold
- EC50 [3]: 0.316 nM
- EC50 [4]: 0.517 nM

B3: WT G5V2 (phage display Fab form) (Fab, V domains shown)
VH: B2 VH with R52Y, W53F, W54F, G55N, I57N
VL: QPVLTQPPSVSAAPGQTARITCGGNNIGEKYVQWYQQRPGQAPVLVIYYDDDRPSGIPERFSGSNSGNTAALTINSVEAGDEADYYCQAWDDYDPVVFGGGTQLTVL
- EC50 ratio (pH 7.4/pH 6.5) [5]: 1.21

B4: G5V2 Y32H (phage display Fab form) (Fab, V domains shown)
VH: B2 VH with R52Y, W53F, W54F, G55N, I57N
VL: B3 VL with Y31H
notes: Kabat numbering (31st letter by plain count)
- EC50 ratio (pH 7.4/pH 6.5) [5]: 0.61
